# Measurements reported in patent US20240168030A1, “DIRECT FLUORESCENT GLYCAN LABELING” (BIO-TECHNE CORPORATION, priority 2019, published 2024).
# T1: ST3Gal1 (Homo sapiens, UniProt Q11201)
# T1 construct: purchased R&D Systems (Bio-Techne, Minneapolis, MN)
# T1 sequence (Q11201 1-340): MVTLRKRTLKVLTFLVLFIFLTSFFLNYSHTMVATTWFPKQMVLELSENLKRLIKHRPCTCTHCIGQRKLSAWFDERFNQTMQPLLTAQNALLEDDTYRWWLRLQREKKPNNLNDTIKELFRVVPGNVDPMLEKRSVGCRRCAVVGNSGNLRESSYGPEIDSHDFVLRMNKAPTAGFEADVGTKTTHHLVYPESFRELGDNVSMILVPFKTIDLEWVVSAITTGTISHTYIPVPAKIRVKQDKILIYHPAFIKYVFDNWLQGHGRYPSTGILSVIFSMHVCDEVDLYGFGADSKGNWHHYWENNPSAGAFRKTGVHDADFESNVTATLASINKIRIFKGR
# T2: ST6Gal1 (Homo sapiens, UniProt P15907)
# T2 construct: purchased R&D Systems (Bio-Techne, Minneapolis, MN)
# T2 sequence (P15907 1-406): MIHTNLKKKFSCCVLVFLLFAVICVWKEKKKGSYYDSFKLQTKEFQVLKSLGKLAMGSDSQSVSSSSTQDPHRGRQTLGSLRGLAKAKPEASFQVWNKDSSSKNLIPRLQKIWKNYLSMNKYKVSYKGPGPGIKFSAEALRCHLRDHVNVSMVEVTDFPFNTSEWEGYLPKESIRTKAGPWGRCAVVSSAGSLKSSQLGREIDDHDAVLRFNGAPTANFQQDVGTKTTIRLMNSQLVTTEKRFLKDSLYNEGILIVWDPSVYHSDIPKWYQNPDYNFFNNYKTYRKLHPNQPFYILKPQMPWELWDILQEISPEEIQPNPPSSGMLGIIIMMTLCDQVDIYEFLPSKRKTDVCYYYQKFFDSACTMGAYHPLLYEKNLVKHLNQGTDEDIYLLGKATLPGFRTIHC
# B1: α-2,3-sialyltransferase 4 (protein, UniProt Q11206 1-333, looked up)
# CMP-N-acetylneuraminate-beta-g …: MVSKSRWKLLAMLALVLVVMVWYSISREDRYIELFYFPIPEKKEPCLQGEAESKASKLFGNYSRDQPIFLRLEDYFWVKTPSAYELPYGTKGSEDLLLRVLAITSSSIPKNIQSLRCRRCVVVGNGHRLRNSSLGDAINKYDVVIRLNNAPVAGYEGDVGSKTTMRLFYPESAHFDPKVENNPDTLLVLVAFKAMDFHWIETILSDKKRVRKGFWKQPPLIWDVNPKQIRILNPFFMEIAADKLLSLPMQQPRKIKQKPTTGLLAITLALHLCDLVHIAGFGYPDAYNKKQTIHYYEQITLKSMAGSGHNVSQEALAIKRMLEMGAIKNLTSF
# notes: recombinant human sialyltransferase, N-glycan specific
# B2: α-2,3-sialyltransferase 2 (protein, UniProt Q16842 1-350, looked up)
# CMP-N-acetylneuraminate-beta-g …: MKCSLRVWFLSVAFLLVFIMSLLFTYSHHSMATLPYLDSGALDGTHRVKLVPGYAGLQRLSKERLSGKSCACRRCMGDAGASDWFDSHFDGNISPVWTRENMDLPPDVQRWWMMLQPQFKSHNTNEVLEKLFQIVPGENPYRFRDPHQCRRCAVVGNSGNLRGSGYGQDVDGHNFIMRMNQAPTVGFEQDVGSRTTHHFMYPESAKNLPANVSFVLVPFKVLDLLWIASALSTGQIRFTYAPVKSFLRVDKEKVQIYNPAFFKYIHDRWTEHHGRYPSTGMLVLFFALHVCDEVNVYGFGADSRGNWHHYWENNRYAGEFRKTGVHDADFEAHIIDMLAKASKIEVYRGN
# notes: recombinant human sialyltransferase, Core-1 O-glycan specific
# B3: α-N-acetylgalactosaminide α-2,6-sialyltransferase 4 (protein, UniProt Q9H4F1 1-302, looked up)
# Alpha-N-acetyl-neuraminyl-2,3- …: MKAPGRLVLIILCSVVFSAVYILLCCWAGLPLCLATCLDHHFPTGSRPTVPGPLHFSGYSSVPDGKPLVREPCRSCAVVSSSGQMLGSGLGAEIDSAECVFRMNQAPTVGFEADVGQRSTLRVVSHTSVPLLLRNYSHYFQKARDTLYMVWGQGRHMDRVLGGRTYRTLLQLTRMYPGLQVYTFTERMMAYCDQIFQDETGKNRRQSGSFLSTGWFTMILALELCEEIVVYGMVSDSYCREKSHPSVPYHYFEKGRLDECQMYLAHEQAPRSAHRFITEKAVFSRWAKKRPIVFAHPSWRTE
# notes: recombinant human sialyltransferase, O-GalNAc specific
# B4: α-N-acetylgalactosaminide α-2,6-sialyltransferase 1 (protein, UniProt Q9NSC7 1-600, looked up)
# Alpha-N-acetylgalactosaminide …: MRSCLWRCRHLSQGVQWSLLLAVLVFFLFALPSFIKEPQTKPSRHQRTENIKERSLQSLAKPKSQAPTRARRTTIYAEPVPENNALNTQTQPKAHTTGDRGKEANQAPPEEQDKVPHTAQRAAWKSPEKEKTMVNTLSPRGQDAGMASGRTEAQSWKSQDTKTTQGNGGQTRKLTASRTVSEKHQGKAATTAKTLIPKSQHRMLAPTGAVSTRTRQKGVTTAVIPPKEKKPQATPPPAPFQSPTTQRNQRLKAANFKSEPRWDFEEKYSFEIGGLQTTCPDSVKIKASKSLWLQKLFLPNLTLFLDSRHFNQSEWDRLEHFAPPFGFMELNYSLVQKVVTRFPPVPQQQLLLASLPAGSLRCITCAVVGNGGILNNSHMGQEIDSHDYVFRLSGALIKGYEQDVGTRTSFYGFTAFSLTQSLLILGNRGFKNVPLGKDVRYLHFLEGTRDYEWLEALLMNQTVMSKNLFWFRHRPQEAFREALHMDRYLLLHPDFLRYMKNRFLRSKTLDGAHWRIYRPTTGALLLLTALQLCDQVSAYGFITEGHERFSDHYYDTSWKRLIFYINHDFKLEREVWKRLHDEGIIRLYQRPGPGTAKAKN
# notes: as for B3
# B5: α-N-acetylgalactosaminide α-2,6-sialyltransferase 2 (protein, UniProt Q9UJ37 1-374, looked up)
# Alpha-N-acetylgalactosaminide …: MGLPRGSFFWLLLLLTAACSGLLFALYFSAVQRYPGPAAGARDTTSFEAFFQSKASNSWTGKGQACRHLLHLAIQRHPHFRGLFNLSIPVLLWGDLFTPALWDRLSQHKAPYGWRGLSHQVIASTLSLLNGSESAKLFAPPRDTPPKCIRCAVVGNGGILNGSRQGPNIDAHDYVFRLNGAVIKGFERDVGTKTSFYGFTVNTMKNSLVSYWNLGFTSVPQGQDLQYIFIPSDIRDYVMLRSAILGVPVPEGLDKGDRPHAYFGPEASASKFKLLHPDFISYLTERFLKSKLINTHFGDLYMPSTGALMLLTALHTCDQVSAYGFITSNYWKFSDHYFERKMKPLIFYANHDLSLEAALWRDLHKAGILQLYQR
# notes: sialyltransferase, O-GalNAc specific
# Assays:
# Type in all cases: biochemical
# ST3Gal1 = target: T1, ST3Gal1; experiment: Direct fluorescent glycan labeling (DFGL) with fluorophore-conjugated sialic acid by ST3Gal1; details: for Lower limit of detection of acceptor protein labeled by ST3Gal1: 0.2 nmol CMP-Cy5-SA, fluorescent imaging of SDS-PAGE
# ST6Gal1 = target: T2, ST6Gal1; experiment: DFGL with fluorophore-conjugated sialic acid by ST6Gal1; details: for Lower limit of detection of acceptor protein labeled by ST6Gal1: 0.2 nmol CMP-Cy5-SA, fluorescent imaging of SDS-PAGE
# [1] = system: fetal bovine fetuin and asialofetuin; experiment: Labeling of fetuin and asialofetuin by sialyltransferases with CMP-f-SA; details: CMP-f-SA donors, FIG. 2
# [2] = Enzymatic synthesis of Le^x and sLe^x by glycan gel electrophoresis, substrate G2
# Protocol: FIG. 21A. Schematic view of the enzymatic steps for Le^X and sLe^X synthesis on the antibody glycan G0. The glycan short names follow that of FIG. 10. FIG. 21B Kinetic comparison of galactosylation on G0 by B4GalT1, sialyation on G2 by ST3Gal4 and ST6Gal1, and fucosylation on A2[3] by FUT7. The reaction time for B4GalT1 was 10 minutes. The reaction time for ST3Gal4, FUT7 and ST6Gal1 was 5 hours. In each case, the labeling enzyme was subject to a 3-fold serial dilution starting from 1 μg each of B4GalT1, FUT7 and ST6Gal1, and 3 μg ST3Gal4. FIG. 21C. […] Reaction time for both cases was 20 minutes. […] FIG. 21D. […] Reaction time for both cases was 20 minutes.
# For a typical labeling reaction, 1 μg to 5 μg target protein was mixed with 0.2 nmol fluorophore-conjugated GDP-fucose and 0.2 μg of a fucosyltransferase in 30μL 25 mM Tris pH 7.5, 10 mM MnCl2. The mixture was incubated at 37° C. for 30 minutes. […] To release labeled glycans from a glycoprotein, the sample was first denatured by heating at 95° C. for two minutes in the presence of 0.5% SDS and 80 mM β-mercaptoethanol and then renatured with 1% Triton X-100, and finally treated with PNGase F at 10:1 mass ratio at 37° C. for 20 minutes. To release glycans from antibody, a sample was directly treated with Endo S at 10:1 mass ratio at 37° C. for 20 minutes. All samples were separated by sodium dodecyl sulfate—polyacrylamide gel electrophoresis (SDS-PAGE) at […]. For separating labeled glycoproteins and antibodies, 4-20% gradient SDS gel was used. For separating labeled free glycans, 15% or 17% gel was used. After separation, all gels were imaged using a FluorChem M imager (ProteinSimple, Bio-Techne, Minneapolis, MN). For glycoproteins samples, the gel was also imaged with traditional methods such as silver staining or trichloroethanol (TCE) staining.
# For sLe^x synthesis, G0 was first converted to G2 by B4GalT1, then converted to A2[3] by ST3Gal4, and finally converted to A2[3]F2 (carrier of sLe^x) by FUT7 (FIG. 21A). During these steps, different amounts of enzymes, and multiple reaction times were applied to reveal the intermediate products.
# Intermediate products are signs for the progress of each enzymatic step.
# [3] = 0.2 μg enzyme, 30 μL, 37° C., 30 minutes
# [4] = 0.2 μg enzyme, 30 μL, 37° C., 30 minutes, listed as AF
# [5] = 5 μg asialofetuin, 0.2 μg enzyme, 30 μL, 37° C., 30 minutes
# [6] = 5 μg asialofetuin, 0.2 μg enzyme, 30 μL, FIG. 4
molecule,measurement,setting,value
"MUC1: recombinant mucin from R&D Systems, contains O-glycans [reference compound]",Lower limit of detection of acceptor protein labeled by ST3Gal1,ST3Gal1; [3],around 0.012 μg
"asialofetuin: desialylated fetal bovine fetuin, model glycoprotein from Sigma-Aldrich [reference compound]",Lower limit of detection of acceptor protein labeled by ST6Gal1,ST6Gal1; [3],0.37 µg
same,Lower limit of detection of acceptor protein labeled by ST6Gal1,ST6Gal1; [4],lower than 0.37 μg
same,Lower limit of detection of acceptor protein labeled by ST3Gal1,ST3Gal1; [3],0.37 µg
same,Lower limit of detection of acceptor protein labeled by ST3Gal1,ST3Gal1; [4],lower than 0.37 μg
cytidine monophosphate activated Cy5-conjugated sialic acid [CMP-Cy5-SA],Donor amount at which maximal labeling by ST6Gal1 was achieved,ST6Gal1; [5],37.0 pmol
same,Donor amount at which visible labeling on asialofetuin by ST6Gal1 was observed,ST6Gal1; [5],1.37 pmol
same,Donor concentration for maximal labeling of asialofetuin by ST6Gal1,ST6Gal1; [6],1.2 µM
same,Donor concentration needed for maximal labeling of asialofetuin by ST6Gal1,ST6Gal1; FIG. 4,1.21 µM
same,Donor amount at which maximal labeling by ST3Gal1 was achieved,ST3Gal1; [5],37.0 pmol
same,Donor amount at which visible labeling on asialofetuin by ST3Gal1 was observed,ST3Gal1; [5],4.11 pmol
same,Donor concentration for maximal labeling of asialofetuin by ST3Gal1,ST3Gal1; [6],1.2 µM
same,Donor concentration needed for maximal labeling of asialofetuin by ST3Gal1,ST3Gal1; FIG. 4,1.21 µM
B1,Which of fetuin and asialofetuin the sialyltransferase labeled,[1],only labeled asialofetuin
same,Time for the complete conversion of G2 to A2[3],[2]; FIG. 21B,5 h
same,Activity based on reaction completion,"[2]; substrate G2, completed product A2[3]",0.0084 pmol/min/µg
same,Relative activity,"[2]; substrate G2, product A2[3], normalized to FUT6 on sLe^x synthesis",0.06
B2,Which of fetuin and asialofetuin the sialyltransferase labeled,[1],"primarily labeled asialofetuin, but also weakly labeled fetuin"
B3,Which of fetuin and asialofetuin the sialyltransferase labeled,[1],only labeled fetuin
B4,Which of fetuin and asialofetuin the sialyltransferase labeled,[1],labeled both fetuin and asialofetuin
B5,Which of fetuin and asialofetuin the sialyltransferase labeled,[1],labeled both fetuin and asialofetuin
